Patent US20210246166A1 (Bayer, published 2021)
Numbered stars: 1 amine (or outer) side, 2 acyl side, 3 side chain; on linkers, the order of the positions; unused ones are H or OH. Bridge positions count the residues as written; N and C are the ends. Square brackets hold non-standard residues; d marks the D form. Primed or numbered codes have the meaning given here. Ends that are not written are not given here. TTDS(3) = 1,13-Diamino-4,7,10-trioxatridecan-succinamic acid; Pro(3S,4R-methano) = O=C(O)[C@H]1NC[C@@H]2C[C@@H]21; cPrCO(1-aminomethyl) = O=C(C1(CN[*:1])CC1)[*:2]; Oic = O=C(O)[C@@H]1C[C@@H]2CCCC[C@@H]2N1; PEG6 = NCCOCCOCCOCCOCCOCCOCCC(=O)O; NMeI = CC[C@H](C)[C@H](NC)C(=O)O; tBuAla = CC(C)(C)C[C@H](N)C(=O)O; Pen = CC(C)(S)[C@H](N)C(=O)O; NMeC = CN[C@@H](CS)C(=O)O; PEG3 = NCCOCCOCCOCCC(=O)O; Nle = CCCC[C@H](N)C(=O)O; Orn = NCCC[C@H](N)C(=O)O; Aze = O=C(O)[C@@H]1CCN1; Nva = CCC[C@H](N)C(=O)O; Sar = CNCC(=O)O

T1: recombinant human MASP1 active protease (amino acids 297-699, C-terminal His Tag) (human, UniProt P48740 297-699)
T1 sequence: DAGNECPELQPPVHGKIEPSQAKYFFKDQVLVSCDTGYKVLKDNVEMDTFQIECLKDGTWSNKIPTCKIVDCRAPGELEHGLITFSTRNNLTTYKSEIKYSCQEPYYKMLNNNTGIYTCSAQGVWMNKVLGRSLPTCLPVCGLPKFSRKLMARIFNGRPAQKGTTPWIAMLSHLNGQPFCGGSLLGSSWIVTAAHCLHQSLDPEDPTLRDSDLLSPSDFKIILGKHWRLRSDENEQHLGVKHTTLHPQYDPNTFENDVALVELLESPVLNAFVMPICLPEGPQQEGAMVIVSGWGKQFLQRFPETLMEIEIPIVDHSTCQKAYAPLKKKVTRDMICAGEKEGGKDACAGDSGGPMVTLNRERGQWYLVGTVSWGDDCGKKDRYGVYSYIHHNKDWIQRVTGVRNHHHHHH

B1: AIC+SRS-((tBu)A)-PPI-(Pen)+IPD-NH2 (peptide)
peptide: AICSRS[tBuAla]PPI[Pen]IPD-NH2
modifications: disulfide 3-11; N-terminus assumed
SMILES: CC[C@H](C)[C@H](NC(=O)[C@H](C)N)C(=O)N[C@H]1CSSC(C)(C)[C@@H](C(=O)N[C@H](C(=O)N2CCC[C@H]2C(=O)N[C@@H](CC(=O)O)C(N)=O)[C@@H](C)CC)NC(=O)[C@H]([C@@H](C)CC)NC(=O)[C@@H]2CCCN2C(=O)[C@@H]2CCCN2C(=O)[C@H](CC(C)(C)C)NC(=O)[C@H](CO)NC(=O)[C@H](CCCNC(=N)N)NC(=O)[C@H](CO)NC1=O
B2: (ACMP)-IC+SRS-((tBu)A)-PPI-((N-Me)C)+I-NH2 (peptide)
peptide: [cPrCO(1-aminomethyl)]ICSRS[tBuAla]PPI[NMeC]I-NH2
modifications: disulfide 3-11; N-terminus assumed
SMILES: CC[C@H](C)[C@H](NC(=O)[C@@H]1CSSC[C@H](NC(=O)[C@@H](NC(=O)C2(CN)CC2)[C@@H](C)CC)C(=O)N[C@@H](CO)C(=O)N[C@@H](CCCNC(=N)N)C(=O)N[C@@H](CO)C(=O)N[C@@H](CC(C)(C)C)C(=O)N2CCC[C@H]2C(=O)N2CCC[C@H]2C(=O)N[C@@H]([C@@H](C)CC)C(=O)N1C)C(N)=O
B3: ((N-Me)G)-IC+SRSLP-(Oic)-I-(Pen)+IP-(PEG5-CH2CO2H (18 atoms))-NH2 (peptide)
peptide: [Sar]ICSRSLP[Oic]I[Pen]IP[PEG5‑CH2CO2H (18 atoms)]-NH2
modifications: disulfide 3-11
B4: (Nva)-IC+SRS-((tBu)A)-PPI-(((N-Me)C))+I-NH2 (peptide)
peptide: [Nva]ICSRS[tBuAla]PPI[NMeC]I-NH2
modifications: disulfide 3-11; N-terminus assumed
SMILES: CCC[C@H](N)C(=O)N[C@H](C(=O)N[C@H]1CSSC[C@@H](C(=O)N[C@H](C(N)=O)[C@@H](C)CC)N(C)C(=O)[C@H]([C@@H](C)CC)NC(=O)[C@@H]2CCCN2C(=O)[C@@H]2CCCN2C(=O)[C@H](CC(C)(C)C)NC(=O)[C@H](CO)NC(=O)[C@H](CCCNC(=N)N)NC(=O)[C@H](CO)NC1=O)[C@@H](C)CC
B5: (Nle)-IC+SRS-((tBu)A)-PPI-(Pen)+IPD-NH2 (peptide)
peptide: [Nle]ICSRS[tBuAla]PPI[Pen]IPD-NH2
modifications: disulfide 3-11; N-terminus assumed
SMILES: CCCC[C@H](N)C(=O)N[C@H](C(=O)N[C@H]1CSSC(C)(C)[C@@H](C(=O)N[C@H](C(=O)N2CCC[C@H]2C(=O)N[C@@H](CC(=O)O)C(N)=O)[C@@H](C)CC)NC(=O)[C@H]([C@@H](C)CC)NC(=O)[C@@H]2CCCN2C(=O)[C@@H]2CCCN2C(=O)[C@H](CC(C)(C)C)NC(=O)[C@H](CO)NC(=O)[C@H](CCCNC(=N)N)NC(=O)[C@H](CO)NC1=O)[C@@H](C)CC
B6: ((N-Me)G)-IC+SRSLP-(Oic)-I-(Pen)+IP-(PEG2(13 atoms))-NH2 (peptide)
peptide: [Sar]ICSRSLP[Oic]I[Pen]IP[PEG3]-NH2
modifications: disulfide 3-11; N-terminus assumed
SMILES: CC[C@H](C)[C@H](NC(=O)CNC)C(=O)N[C@H]1CSSC(C)(C)[C@@H](C(=O)N[C@H](C(=O)N2CCC[C@H]2C(=O)NCCOCCOCCOCCC(N)=O)[C@@H](C)CC)NC(=O)[C@H]([C@@H](C)CC)NC(=O)[C@@H]2C[C@@H]3CCCC[C@@H]3N2C(=O)[C@@H]2CCCN2C(=O)[C@H](CC(C)C)NC(=O)[C@H](CO)NC(=O)[C@H](CCCNC(=N)N)NC(=O)[C@H](CO)NC1=O
B7: AIC+SRSLP-(rel-(1R,3R,5R,6R)-6-(Trifluoromethyl)-2-azabicyclo[3.1.0]hexane-3-carboxylic acid)-IC+IPD-NH2 (peptide)
peptide: AICSRSLP[rel‑(1R,3R,5R,6R)‑6‑(Trifluoromethyl)‑2‑azabicyclo(3.1.0)hexane‑3‑carboxylic acid]ICIPD-NH2
modifications: disulfide 3-11
B8: ((N-Me)G)-IC+SRS-((tBu)A)-PPI-(Pen)+IP-(PEG5(22 atoms))-NH2 (peptide)
peptide: [Sar]ICSRS[tBuAla]PPI[Pen]IP[PEG6]-NH2
modifications: disulfide 3-11; N-terminus assumed
SMILES: CC[C@H](C)[C@H](NC(=O)CNC)C(=O)N[C@H]1CSSC(C)(C)[C@@H](C(=O)N[C@H](C(=O)N2CCC[C@H]2C(=O)NCCOCCOCCOCCOCCOCCOCCC(N)=O)[C@@H](C)CC)NC(=O)[C@H]([C@@H](C)CC)NC(=O)[C@@H]2CCCN2C(=O)[C@@H]2CCCN2C(=O)[C@H](CC(C)(C)C)NC(=O)[C@H](CO)NC(=O)[C@H](CCCNC(=N)N)NC(=O)[C@H](CO)NC1=O
B9: ((N-Me)G)-IC+SRSL-((1S,2S,5R)-3-azabicyclo[3.1.0]hexane-2-carboxylic acid)-PI-(Pen)+IPE-NH2 (peptide)
peptide: [Sar]ICSRSL[Pro(3S,4R-methano)]PI[Pen]IPE-NH2
modifications: disulfide 3-11; N-terminus assumed
SMILES: CC[C@H](C)[C@H](NC(=O)CNC)C(=O)N[C@H]1CSSC(C)(C)[C@@H](C(=O)N[C@H](C(=O)N2CCC[C@H]2C(=O)N[C@@H](CCC(=O)O)C(N)=O)[C@@H](C)CC)NC(=O)[C@H]([C@@H](C)CC)NC(=O)[C@@H]2CCCN2C(=O)[C@@H]2[C@H]3C[C@H]3CN2C(=O)[C@H](CC(C)C)NC(=O)[C@H](CO)NC(=O)[C@H](CCCNC(=N)N)NC(=O)[C@H](CO)NC1=O
B10: (Orn)-IC+SRS-((tBu)A)-PPI-((N-Me)C)+I-NH2 (peptide)
peptide: [Orn]ICSRS[tBuAla]PPI[NMeC]I-NH2
modifications: disulfide 3-11; N-terminus assumed
SMILES: CC[C@H](C)[C@H](NC(=O)[C@@H]1CSSC[C@H](NC(=O)[C@@H](NC(=O)[C@@H](N)CCCN)[C@@H](C)CC)C(=O)N[C@@H](CO)C(=O)N[C@@H](CCCNC(=N)N)C(=O)N[C@@H](CO)C(=O)N[C@@H](CC(C)(C)C)C(=O)N2CCC[C@H]2C(=O)N2CCC[C@H]2C(=O)N[C@@H]([C@@H](C)CC)C(=O)N1C)C(N)=O
B11: aIC+SRSLP-(Oic)-I-(Pen)+I-OH (peptide)
peptide: [dA]ICSRSLP[Oic]I[Pen]I-OH
modifications: disulfide 3-11; N-terminus assumed
SMILES: CC[C@H](C)[C@H](NC(=O)[C@H]1NC(=O)[C@H]([C@@H](C)CC)NC(=O)[C@@H]2C[C@@H]3CCCC[C@@H]3N2C(=O)[C@@H]2CCCN2C(=O)[C@H](CC(C)C)NC(=O)[C@H](CO)NC(=O)[C@H](CCCNC(=N)N)NC(=O)[C@H](CO)NC(=O)[C@@H](NC(=O)[C@@H](NC(=O)[C@@H](C)N)[C@@H](C)CC)CSSC1(C)C)C(=O)O
B12: ((N-Me)G)-((N-Me)I)-C+SRS-((tBu)A)-PPI-(Pen)+I-NH2 (peptide)
peptide: [Sar][NMeI]CSRS[tBuAla]PPI[Pen]I-NH2
modifications: disulfide 3-11; N-terminus assumed
SMILES: CC[C@H](C)[C@H](NC(=O)[C@H]1NC(=O)[C@H]([C@@H](C)CC)NC(=O)[C@@H]2CCCN2C(=O)[C@@H]2CCCN2C(=O)[C@H](CC(C)(C)C)NC(=O)[C@H](CO)NC(=O)[C@H](CCCNC(=N)N)NC(=O)[C@H](CO)NC(=O)[C@@H](NC(=O)[C@H]([C@@H](C)CC)N(C)C(=O)CNC)CSSC1(C)C)C(N)=O
B13: AIC+SRS-((tBu)A)-PPI-((N-Me)C)+IPD-OH (peptide)
peptide: AICSRS[tBuAla]PPI[NMeC]IPD-OH
modifications: disulfide 3-11; N-terminus assumed
SMILES: CC[C@H](C)[C@H](NC(=O)[C@H](C)N)C(=O)N[C@H]1CSSC[C@@H](C(=O)N[C@H](C(=O)N2CCC[C@H]2C(=O)N[C@@H](CC(=O)O)C(=O)O)[C@@H](C)CC)N(C)C(=O)[C@H]([C@@H](C)CC)NC(=O)[C@@H]2CCCN2C(=O)[C@@H]2CCCN2C(=O)[C@H](CC(C)(C)C)NC(=O)[C@H](CO)NC(=O)[C@H](CCCNC(=N)N)NC(=O)[C@H](CO)NC1=O
B14: WIC+SRS-((tBu)A)-PPI-(Pen)+IPD-NH2 (peptide)
peptide: WICSRS[tBuAla]PPI[Pen]IPD-NH2
modifications: disulfide 3-11; N-terminus assumed
SMILES: CC[C@H](C)[C@H](NC(=O)[C@@H](N)Cc1c[nH]c2ccccc12)C(=O)N[C@H]1CSSC(C)(C)[C@@H](C(=O)N[C@H](C(=O)N2CCC[C@H]2C(=O)N[C@@H](CC(=O)O)C(N)=O)[C@@H](C)CC)NC(=O)[C@H]([C@@H](C)CC)NC(=O)[C@@H]2CCCN2C(=O)[C@@H]2CCCN2C(=O)[C@H](CC(C)(C)C)NC(=O)[C@H](CO)NC(=O)[C@H](CCCNC(=N)N)NC(=O)[C@H](CO)NC1=O
B15: ((N-Me)G)-IC+SRS-((tBu)A)-PPI-(Pen)+IP-(TTDS)-NH2 (peptide)
peptide: [Sar]ICSRS[tBuAla]PPI[Pen]IP-{TTDS(3)-NH2}
modifications: disulfide 3-11
B16: (Azetidine-2-carboxylic acid)-IC+SRS-((tBu)A)-PPI-(Pen)+IPD-NH2 (peptide)
peptide: [Aze]ICSRS[tBuAla]PPI[Pen]IPD-NH2
modifications: disulfide 3-11
B17: AIC+SRS-((tBu)A)-P-(Oic)-IC+IPD-NH2 (HCl salt) (peptide)
peptide: AICSRS[tBuAla]P[Oic]ICIPD-NH2
modifications: disulfide 3-11; also: HCl salt

biological target: T1, recombinant human MASP1 active protease …; test: cell-based or functional assay

human MASP1 IC50 [nM]	Binder
2.6	B1
2.6	B2
2.4	B3
1.1	B4
2.6	B5
1.1	B6
2.8	B7
2.5	B8
2.5	B9
2.6	B10
2.6	B11
2.7	B12
2.45	B13
2.4	B14
2.4	B15
2.4	B16
2.5	B17

biological target: recombinant human MASP2 active protease (amino acids 297-686, C-terminal His Tag) (human, UniProt O00187 297-686); test: cell-based or functional assay
Sequence (O00187 other isoform, or with tags, fused parts or gaps limits assumed): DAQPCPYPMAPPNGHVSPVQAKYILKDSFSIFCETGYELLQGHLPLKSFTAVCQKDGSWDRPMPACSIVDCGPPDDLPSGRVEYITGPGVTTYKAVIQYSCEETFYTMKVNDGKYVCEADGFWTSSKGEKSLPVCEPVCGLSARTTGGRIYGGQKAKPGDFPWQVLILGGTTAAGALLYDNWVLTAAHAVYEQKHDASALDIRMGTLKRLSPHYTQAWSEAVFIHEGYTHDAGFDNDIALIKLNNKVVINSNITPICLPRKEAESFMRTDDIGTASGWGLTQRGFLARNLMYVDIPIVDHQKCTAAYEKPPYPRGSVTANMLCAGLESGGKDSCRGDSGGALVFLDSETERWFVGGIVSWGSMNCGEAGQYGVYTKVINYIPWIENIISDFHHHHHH

human MASP2 IC50 [nM]	Binder
83	B1
360	B2
110	B3
50	B4
38	B5
23	B6
2800	B7
48	B8
70	B9
130	B10
92	B11
320	B12
185	B13
64	B14
58	B15
68	B16
190	B17
